Measurements: paper PMC8136821 (Nucleic Acids Research, 2021)

Molecular target: RhpA DEAD-box RNA helicase of H. pylori, recombinant, His-tagged (H. pylori)
Experiment: SPR

B1: H. pylori RNase R (HpRNase R), recombinant, His-tagged (enzyme)
chain: MQGFLRSLFFGVKKIPKPFAPLVEKGVLKEALELKKDRYFLKEGFDIGKVEKVKDKAFFISLAKNYPKDPLIKNLPPSFKTDALILCQIECSKKRPIAFFKAALLNADHTMIAYLAKKNNQIVAIPFKEPFKKPVSLKHSQKSLLELPRHCVVKIDTKKREISEILGALEDPLIDENLSLSLFDRVKDFSKDCLNLAQHYAQLKASDFKDRINYSHIPFITIDPKDAKDFDDAIFYDQEKRVLFVAVADVSEFVPKHSSLDKEARVRGFSVYFPNSVYPMLPLSLSQGACSLKAFEKRLALVYEIPLDNLKNARLSQGVIEVRANCTYEEINHFLSANQSSLDKDLQQSLLGFLEMALKLKKERLKKGFNFNSFENKLYLNKEGRIEKIETEKESDAHTLIEEAMLLANQSSARLLDEHFHNKGIYRTHKEPSLEQQKRLYDKLFDYEIVRPKNMGFFPFLEHALKIAKEKSIEREVSRLIIKSQNLALYSPLQESHFGLGFASYTHFTSPIRRYSDLALHRLLKELLFYQAKGCSYLLEETPELCAELNALQKKAALIERDFIKRKFARLALELLEKEFLGVVLEVKDWVVVGLKEFIGLKVLVKTNKVFKPLEKVRVTITHADLILGQVRGEITERIKEHVS
  Kd: 29 ± 4.4 nM
  kon: 35000 M⁻¹ s⁻¹
